Measurements as given in publication PMC4657330, “Rac1 augments Wnt signaling by stimulating β-catenin–lymphoid enhancer factor-1 complex assembly independent of β-catenin nuclear import” (Journal of Cell Science, 2015).

Molecular target: T1, HA-tagged LEF-1 (UniProt Q9UJU2 1-399)
T1 construct: LEF-1 (lymphoid enhancer factor 1); written both HA-LEF-1 and LEF-1-HA; also called pHA-LEF-1; HA-LEF-1; source: HEK293, transfected, in lysate; NIH 3T3, transfected, in lysate and in fixed cells
Test: co-IP; NIH 3T3 lysates, pLEF-1-HA co-transfected with pβ-catenin-myc constructs; IP with HA mAb or isotype control IgG, blot with anti-myc; densitometry over three independent experiments
Details: partners not purified

T1 sequence (Q9UJU2 whole entry): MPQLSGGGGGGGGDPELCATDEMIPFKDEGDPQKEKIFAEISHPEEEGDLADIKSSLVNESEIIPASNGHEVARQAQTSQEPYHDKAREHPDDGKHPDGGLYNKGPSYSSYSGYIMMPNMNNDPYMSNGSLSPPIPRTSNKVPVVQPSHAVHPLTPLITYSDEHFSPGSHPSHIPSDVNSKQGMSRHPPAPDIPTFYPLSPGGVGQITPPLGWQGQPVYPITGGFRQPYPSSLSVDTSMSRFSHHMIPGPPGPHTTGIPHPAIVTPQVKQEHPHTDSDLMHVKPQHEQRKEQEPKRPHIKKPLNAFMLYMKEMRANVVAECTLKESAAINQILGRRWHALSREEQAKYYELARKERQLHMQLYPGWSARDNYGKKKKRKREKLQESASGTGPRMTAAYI

reduction in binding relative to β-catenin-WT (densitometry of the co-IP) | Binder
~20% | myc-tagged β-catenin S191A (natural protein, UniProt P35222 1-781, looked up, from the Long laboratory (Wu et al., 2008); also called pmyc-β-catenin-S191A; source: NIH 3T3, transfected, in lysate and in fixed cells) MATQADLMELDMAMEPDRKAAVSHWQQQSYLDSGIHSGATTTAPSLSGKGNPEEEDVDTSQVLYEWEQGFSQSFTQEQVADIDGQYAMTRAQRVRAAMFPETLDEGMQIPSTQFDAAHPTNVQRLAEPSQMLKHAVVNLINYQDDAELATRAIPELTKLLNDEDQVVVNKAAVMVHQLSKKEASRHAIMRAPQMVSAIVRTMQNTNDVETARCTAGTLHNLSHHREGLLAIFKSGGIPALVKMLGSPVDSVLFYAITTLHNLLLHQEGAKMAVRLAGGLQKMVALLNKTNVKFLAITTDCLQILAYGNQESKLIILASGGPQALVNIMRTYTYEKLLWTTSRVLKVLSVCSSNKPAIVEAGGMQALGLHLTDPSQRLVQNCLWTLRNLSDAATKQEGMEGLLGTLVQLLGSDDINVVTCAAGILSNLTCNNYKNKMMVCQVGGIEALVRTVLRAGDREDITEPAICALRHLTSRHQEAEMAQNAVRLHYGLPVVVKLLHPPSHWPLIKATVGLIRNLALCPANHAPLREQGAIPRLVQLLVRAHQDTQRRTSMGGTQQQFVEGVRMEEIVEGCTGALHILARDVHNRIVIRGLNTIPLFVQLLYSPIENIQRVAAGVLCELAQDKEAAEAIEAEGATAPLTELLHSRNEGVATYAAAVLFRMSEDKPQDYKKRLSVELTSSLFRTEPMAWNETADLGLDIGAQGEPLGYRQDDPSYRSFHSGGYGQDALGMDPMMEHEMGGHHPGADYPVDGLPDLGHAQDLMDGLPPGDSNQLAWFDTDL
~50% | myc-tagged β-catenin S605A (natural protein, UniProt P35222 1-781, looked up, from the Long laboratory (Wu et al., 2008); also called pmyc-β-catenin-S605A; source: NIH 3T3, transfected, in lysate and in fixed cells) MATQADLMELDMAMEPDRKAAVSHWQQQSYLDSGIHSGATTTAPSLSGKGNPEEEDVDTSQVLYEWEQGFSQSFTQEQVADIDGQYAMTRAQRVRAAMFPETLDEGMQIPSTQFDAAHPTNVQRLAEPSQMLKHAVVNLINYQDDAELATRAIPELTKLLNDEDQVVVNKAAVMVHQLSKKEASRHAIMRSPQMVSAIVRTMQNTNDVETARCTAGTLHNLSHHREGLLAIFKSGGIPALVKMLGSPVDSVLFYAITTLHNLLLHQEGAKMAVRLAGGLQKMVALLNKTNVKFLAITTDCLQILAYGNQESKLIILASGGPQALVNIMRTYTYEKLLWTTSRVLKVLSVCSSNKPAIVEAGGMQALGLHLTDPSQRLVQNCLWTLRNLSDAATKQEGMEGLLGTLVQLLGSDDINVVTCAAGILSNLTCNNYKNKMMVCQVGGIEALVRTVLRAGDREDITEPAICALRHLTSRHQEAEMAQNAVRLHYGLPVVVKLLHPPSHWPLIKATVGLIRNLALCPANHAPLREQGAIPRLVQLLVRAHQDTQRRTSMGGTQQQFVEGVRMEEIVEGCTGALHILARDVHNRIVIRGLNTIPLFVQLLYAPIENIQRVAAGVLCELAQDKEAAEAIEAEGATAPLTELLHSRNEGVATYAAAVLFRMSEDKPQDYKKRLSVELTSSLFRTEPMAWNETADLGLDIGAQGEPLGYRQDDPSYRSFHSGGYGQDALGMDPMMEHEMGGHHPGADYPVDGLPDLGHAQDLMDGLPPGDSNQLAWFDTDL
